According to patent US20010016194A1 (priority 1999, published 2001):

Experiments:
[1] = biological target: T1, Raf-1 proteins present in T-cell lysates (Homo sapiens, UniProt P04049); test: Cell-free system: binding of Raf-1 from T-cell lysates to FLAG-HMK-IL-2Rβ chain fusion proteins on anti-FLAG beads, anti-Raf-1 immunoblot; design: decrease of Raf-1 binding in comparison to WT control: unit not given here; settings: T-cell lysates, anti-Raf-1 immunoblot; for binding of T-cell derived Raf-1 proteins: affinity beads coated with fusion protein
T1 construct: endogenous in cells; host or cells: PHA-stimulated human peripheral blood mononuclear cells (T cells), lysate
From the text: (ii) In order to study the interaction of IL-2Rβ chain with intracellular molecules, the FLAG-HMK-IL-2Rβ chain cytoplasmic domain fusion protein was purified from bacterial lysate using the M2 anti-FLAG monoclonal antibody in a standard affinity chromatography procedure. More specifically, bacterial lysate proteins were absorbed onto anti-FLAG (M2) affinity column (IBI-Kodak, New Haven, Conn., USA). After washing the column, the adsorbed proteins were eluted with either glycine buffer (pH 3) or FLAG peptide (10^−4M). Proteins in various fractions were analyzed for expected size (about 33 kDa) and purity after separation on SDS-PAGE and Commassie blue staining. The presence of a functional HMK recognition site was confirmed by phosphorylation of the purified 33 kDa IL-2Rβ chain fusion protein by HMK. More specifically, the eluted fusion proteins were tested for susceptibility to phosphorylation by incubation with the catalytic subunit of bovine heart muscle kinase (Sigma) (1 U/ul) in buffer containing 20 mM Tric-HCl, pH 7.5, 1 mM DTT, 100 mM NaCl, 10 mM MgCl2 and 1μCi [γ^32p] ATP for 30 min at 37° C. followed by SDS-PAGE and autoradiography. Purified FLAG-HMK-IL-2Rβ chain fusion proteins were used as an affinity reagent to probe for cytosolic proteins present in lysates of human T cells, metabolically labeled with [^35S ]-methionine, that bind to the IL-2Rβ chain. […] For [^35S]-methionine labeling, the cells were suspended at 4×10^7 cells/ml at 37° C. followed by addition of 0.5 mCi of [^35S]-methionine for 4 hours prior to lysis in Dounce homogenization buffer and application of the lysate to the affinity column. Several [^35S]-labeled proteins were retained by the FLAG-HMK-IL-2Rβ chain cytosolic domain fusion protein bound to the affinity column. One of these proteins was identified as Raf-1 by immunoblotting using a polyclonal antibody specific for the SP-63 peptide which corresponds to the C-terminal fragment of Raf-1. A molar excess of the competing SP-63 peptide blocked binding of the anti-SP-63 antibody to Raf-1.
Using the basic cell-free system described above, a number of FLAG-HMK-IL-2Rβ chain wild type FLAG-HMK-IL2Rβ chain deletion mutant proteins were then studied with respect to this specific interaction with Raf-i proteins present in T-cell lysates. These FLAG-HMK-IL2Rβ chain wild type (WT) and deletion mutants lacking certain defined domains of the IL-2Rβ chain were used to identify the IL-2Rβ chain domain involved in Raf-1 binding. Assay conditions were similar to those described above. […] In FIG. 1, there is shown, schematically, all of the constructs, i.e., FLAG-HMK-IL-2Rβ chain fusion proteins produced in transformed bacterial cells and used in this study. These FLAG-HMK- fusion proteins-coated beads were then used as affinity reagents to absorb Raf-1 proteins present in T-cell lysates. T-cell derived proteins bound to FLAG-HMK fusion proteins were then eluted using buffer containing FLAG peptide, separated on SDS-PAGE, transferred onto Immobilon membrane and blotted with anti-Raf-1 antibody.
The absorbed proteins were washed, eluted with FLAG peptide and probed for the presence of Raf-1 and 14-3-3 proteins on immunoblots. […] Washed cells (about 4×10^7) were lysed in Dounce homogenization buffer, centrifuged (15×10^3 xg for 15 min.) and supernatants applied onto washed anti-FLAG (M2) affinity column (IBI-Kodak) coated with bacterial lysates interacted with one of the FLAG-HMK fusion proteins. […]

(His)6-Raf-1 [2] = biological target: T2, (His)6-Raf-1 (Homo sapiens, UniProt P04049); test: Totally cell-free system: binding of bacterially produced (His)6-Raf-1 to FLAG-HMK-IL-2Rβ chain fusion proteins, anti-Raf-1 immunoblot; settings: for amount of Raf-1 proteins bound, % of the positive control value (Raf-1 binding to FLAG-HMK-IL-2Rβ chain WT): estimated using Hewlett Packard ScanJet
T2 construct: made in house; host or cells: M15 bacteria (E. coli), pQE-30
Description: For the construction of the (His)6-Raf-1 expression plasmid, PCR was performed using the […] cDNA as template and oligonucleotide primers designed to facilitate cloning into the pQE-30 plasmid according to the manufacturer's protocol (QIAGEN, QIAexpressionist; Chatsworth, CA). (His)6-Raf-1 protein was produced in M15 bacteria by IPTG induction, and purified on Ni-NTA resin (QIAGEN). Affinity purification yielded a 72-74 kD protein which was recognized by anti Raf-1 antibody.
Accordingly, in this totally cell-free assay, FLAG-HMK-IL-2Rβ chain wild type and deletion mutants lacking at least one of several defined domains of the IL-2Rβ chain (see Example 1) were used to identify the IL-2Rβ chain domain involved in Raf-1 binding. Assay conditions were similar to those described in Example 1. Briefly, bacterially produced proteins: FLAG-HMK-IL-2Rβ chain wild type (WT), FLAG-HMK-IL-2Rβ chain containing only proline rich C-terminal (CT^+), FLAG-HMK-IL-2Rβ chain mutants lacking:serine rich region (S^−), acidic domain (A^−), acidic domain and proline rich C-terminal (A^−CT^−) were incubated with bacterially produced (His)6-Raf-1 (for all constructs see FIG. 1) followed by adsorption of FLAG-HMK-IL-2Rβ chain/Raf-1 complexes on anti-FLAG affinity beads. After extensive washing, IL-2Rβ chain/Raf-1 complexes were competitively eluted from anti-FLAG beads using buffer containing FLAG peptide. Eluted proteins were separated on SDS-PAGE, transferred onto Immobilon membrane and blotted with anti-Raf-1 antibody.

[3] = test system: T-cell derived, active serine/threonine kinase; test: Protein kinase reaction on anti-FLAG beads coated with FLAG-HMK-IL-2Rβ chain proteins and exposed to T-cell lysates; assay type: biochemical, human; settings: for level of (His)6-Mek-1 kinase phosphorylation: kinase defective (His)6-Mek-1 as substrate; for serine/threonine kinase activity, phosphorylation of p70 protein: no exogenously added substrate
From the text: FLAG-HMK-IL-2Rβ chain wild type and deletional mutants lacking certain defined domains of the IL-2Rβ chain (see Examples 1 and 2 and FIG. 1) were used to identify IL-2Rβ chain domain involved in binding T-cell derived, active serine/threonine kinase. Assay conditions were similar to those noted above. […] FLAG-HMK- fusion proteins coated beads were further used as affinity reagents to absorb proteins present in T-cell lysates. T-cell derived proteins bound to FLAG-MHK fusion proteins were then tested for serine/threonine kinase activity in the absence or presence of exogenous substrates: Histone H-1 or (His),-Mek-1. Products of kinase reactions were boiled in SDS-PAGE sample buffer followed by separation on SDS-PAGE, transfer onto Immobilon membrane and autoradiography. The following are the experiments that were carried out and their results: […]

(His)6-Raf-1 [4] = biological target: T2, (His)6-Raf-1; test: Kinase activity toward Mek-1 after interaction of FLAG-HMK-IL-2Rβ chain with bacterially produced (His)6-Raf-1; assay type: biochemical; settings: interaction with (His)6-Raf-1; enzymatically inactive (His)6-Mek-1 substrate
Description: Bacterial lysates containing FLAG-HMK-IL-2Rβ chain wild type and (His)6-Raf-1 proteins were used (see Example 2) to test the hypothesis that the IL-2Rβ chain induces catalytic activity of Raf-1. Assay conditions were similar to those described above. Briefly, bacterially produced proteins: FLAG-HMK-IL-2Rβ chain wild type (WT) or FLAG-HMK (negative control) (for all constructs see FIG. 1) were incubated with bacterial lysates containing either (His)6-Raf-1 or (His)6 (negative control) followed by the absorption of protein complexes on anti-FLAG affinity beads. […] Products of kinase reactions were boiled in SDS-PAGE sample buffer followed by separation on SDS-PAGE, transfer onto Immobilon membrane and autoradiography.

Molecule | binding of T-cell derived Raf-1 proteins [1] | amount of Raf-1 proteins bound, % of the positive control value (Raf-1 binding to FLAG-HMK-IL-2Rβ chain WT) ((His)6-Raf-1 [2]) | level of (His)6-Mek-1 kinase phosphorylation [3] | serine/threonine kinase activity, phosphorylation of p70 protein [3] | decrease of Raf-1 binding in comparison to WT control [1] | binding of Raf-1 proteins ((His)6-Raf-1 [2]; anti-Raf-1 immunoblot) | induction of kinase activity toward Mek-1 kinase ((His)6-Raf-1 [4])
mutant A^−CT^−: FLAG-HMK-IL-2Rβ chain mutant lacking both acidic domain and proline rich C-terminal (protein, left off: small tags and cut ends, FLAG-HMK-IL-2Rβ chain mutant lacking both acidic domain and proline rich C-terminal) NCRNTGPWLKKVLKCNTPDPSKFFSQLSSEHGGDVQKWLSSPFPSSSFSPGGLAPEISPLEVLERDKVTQLLL | no binding | 0% | Background levels | no phosphorylated band p70 | – | – | –
FLAG-HMK-IL-2Rβ chain CT^+: FLAG-HMK-IL-2Rβ chain containing only the proline rich C-terminal (protein, left off: small tags and cut ends, FLAG-HMK-IL-2Rβ chain containing only the proline rich C-terminal) QPLSGEDDAYCTFPSRDDLLLFSPSLLGGPSPPSTAPGGSGAGEERMPPSLQERVPRDWDPQPLGPPTPGVPDLVDFQPPPELVLREAGEEVPDAGPREGVSFPWSRPPGQGEFRALNARLPLNTDAYLSLQELQGQDPTHLV | no binding | 0%-10% | Background levels | no phosphorylated band p70 | – | – | –
FLAG-HMK-IL-2Rβ chain mutant A-: FLAG-HMK-IL-2Rβ chain mutant lacking the acidic domain (protein, left off: small tags and cut ends, FLAG-HMK-IL-2Rβ chain mutant lacking the acidic domain) NCRNTGPWLKKVLKCNTPDPSKFFSQLSSEHGGDVQKWLSSPFPSSSFSPGGLAPEISPLEVLERDKVTQLLLQPLSGEDDAYCTFPSRDDLLLFSPSLLGGPSPPSTAPGGSGAGEERMPPSLQERVPRDWDPQPLGPPTPGVPDLVDFQPPPELVLREAGEEVPDAGPREGVSFPWSRPPGQGEFRALNARLPLNTDAYLSLQELQGQDPTHLV | – | 17-50% | Background levels | no phosphorylated band p70 | 50-80 | – | –
FLAG-HMK-IL-2Rβ chain WT: bacterially produced fusion protein: FLAG epitope, HMK site and wild type IL-2Rβ chain cytoplasmic domain (protein, left off: small tags and cut ends) NCRNTGPWLKKVLKCNTPDPSKFFSQLSSEHGGDVQKWLSSPFPSSSFSPGGLAPEISPLEVLERDKVTQLLLQQDKVPEPASLSSNHSLTSCFTNQGYFFFHLPDALEIEACQVYFTYDPYSEEDPDEGVAGAPTGSSPQPLQPLSGEDDAYCTFPSRDDLLLFSPSLLGGPSPPSTAPGGSGAGEERMPPSLQERVPRDWDPQPLGPPTPGVPDLVDFQPPPELVLREAGEEVPDAGPREGVSFPWSRPPGQGEFRALNARLPLNTDAYLSLQELQGQDPTHLV | bind T-cell derived Raf-1 proteins equally well | – | increase | bind T-cell derived protein(s) expressing serine/threonine kinase activity | – | bind Raf-1 proteins equally well | did not result in the induction of kinase activity
